Laboratory results published in article doi:10.1101/2024.05.02.592261.
Values joined by “and” are separate entries in the source; they are usually repeats but may differ in a detail not shown here. Equal entries are not always repeated.

Molecular target: His-EutM (UniProt P41791)
Test: pull-down

UniProt P41791, sequence (P41791 whole entry): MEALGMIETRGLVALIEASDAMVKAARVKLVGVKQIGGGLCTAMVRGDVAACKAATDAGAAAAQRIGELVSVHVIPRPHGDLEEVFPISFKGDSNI

| Substance | molar ratio of His-EutM to dual-modified EutM in the purified hybrid scaffold |
| --- | --- |
| SnoopT-EutM-SpyT | 3.3 :1 and 7.6 :1 |
| SpyC-EutM-SnoopC | 3.9 :1 and 8.8 :1 |
